Test [1] concerns the target T1, human NgR1 alanine mutant 163 (human, UniProt Q9BZR6 27-473).
T1 sequence: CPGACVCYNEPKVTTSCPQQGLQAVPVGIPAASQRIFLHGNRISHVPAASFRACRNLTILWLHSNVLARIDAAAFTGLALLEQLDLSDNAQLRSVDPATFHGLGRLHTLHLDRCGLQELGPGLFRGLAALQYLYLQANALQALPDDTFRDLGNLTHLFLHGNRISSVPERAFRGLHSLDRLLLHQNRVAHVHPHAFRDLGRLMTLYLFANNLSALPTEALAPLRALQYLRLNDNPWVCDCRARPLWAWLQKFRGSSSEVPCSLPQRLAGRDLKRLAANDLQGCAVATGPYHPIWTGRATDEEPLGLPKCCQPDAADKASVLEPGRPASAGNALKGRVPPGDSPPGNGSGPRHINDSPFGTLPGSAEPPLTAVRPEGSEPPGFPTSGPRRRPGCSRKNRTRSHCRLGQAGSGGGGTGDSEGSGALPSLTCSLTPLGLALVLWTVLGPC
As to the kind of experiment: AP-ligand binding, COS-7.

Test [2] addresses T2, human NgR1 alanine mutant 133, 136 (human, UniProt Q9BZR6 27-473).
T2 sequence: T1 sequence with H107A, H110A, A137D
Kind of test: AP-ligand binding, COS-7.

Test [3] addresses T3, human NgR1 alanine mutant 158, 160 (human, UniProt Q9BZR6 27-473).
T3 sequence: T1 sequence with Y132A, Y134A, A137D
Kind of test: AP-ligand binding, COS-7.

For test [4], the target named is T4, human NgR1 alanine mutant 232, 234 (human, UniProt Q9BZR6 27-473).
T4 sequence: T1 sequence with A137D, Y206A, F208A
As to the kind of experiment: AP-ligand binding, COS-7.

Test [5] has as its target T5, human NgR1 alanine mutant 182, 186 (human, UniProt Q9BZR6 27-473).
T5 sequence: T1 sequence with A137D, H156A, H160A
Kind of test: AP-ligand binding, COS-7.

The target in test [6] is T6, human NgR1 alanine mutant 82, 179 (human, UniProt Q9BZR6 27-473).
T6 sequence: T1 sequence with N56A, A137D, N153A
Kind of test: AP-ligand binding, COS-7.

A further test has as its system COS-7 cells. As to the kind of experiment: Fibroblast spreading assay on dried GST fusion protein. The format is cell-based. The following applies: GST fusion protein presented as dried substrate. The protocol: FIG. 2A. Effects of Amino-Nogo fragments on fibroblast spreading and neurite outgrowth. Different effects of Amino-Nogo fragments on fibroblast spreading. COS-7 cells were allowed to attach and spread on slides with spots coated with 50 ng of dried GST fusion protein as indicated and stained for F-actin. GST-A: fusion protein of GST and A fragment (FIG. 1) of Amino-Nogo. GST-A, GST-B, GST-Δ20, GST-B4 and GST-B4C: fusion protein of GST and A, B, Δ20, B4 or B4C fragment (FIG. 1) of Amino-Nogo, respectively.
FIG. 2B. COS-7 cell area for experiments as in (A) was measured and plotted.
FIG. 2C. COS-7 cells were allowed to attach and spread on 96 well dishes coated with dried GST fusion proteins as indicated. Number of attached cells were counted and plotted as a function of the amount of various proteins dried per well in a 96 well dish.
It has been recognized that the Amino-Nogo-A protein inhibits non-neuronal cell spreading and axonal outgrowth when the protein is substrate bound (Chen, M. S., et al., Nature 403:434-439 (2000); Fournier, A. E., et al., Nature 409:341-346 (2001)). […] The later domain has been termed Δ20. To determine whether the NgR-interacting aa of Amino-Nogo-A described in Example 1 regulate cell spreading and axonal outgrowth, various fragments were expressed as GST fusion proteins and purified from E. coli. To generate GST fusion proteins, amino Nogo fragments were cloned in pGEX2T (Amersham Pharmacia). Native and soluble GST fusion proteins were expressed and purified as described (GrandPre, T., et al., Nature 403:439-444 (2000)). COS-7 binding assays were done as described (Fournier, A. E., et al., Nature 409:341-346 (2001)). Bound AP to COS-7 cells was measured using NIH image software. Fibroblast spreading and cDRG outgrowth assay were done as described (Fournier, A. E., et al., Nature 409:341-346 (2001)) with some modifications. Briefly, 50 μl of purified GST fusion protein or peptides diluted in PBS was pipetted into polylysine precoated 96 well plates (Becton Dickson Biocoat plates) and dried overnight at room temperature. […]

Another test has as its system E13 chick DRG neurons. As to the kind of experiment: cDRG neurite outgrowth assay. The format is cell-based. The conditions noted are these: substrate coated with GST fusion protein. The procedure: FIG. 2D. Differential effects of Amino-Nogo fragments on neurite outgrowth. Dissociated neurons from E13 chick DRGs were plated on 96 well dishes coated with lpmol protein per well and stained for neurofilament localization.
FIG. 2E. Neurite length per neuron were measured and plotted as percentage of PBS control with increasing concentration of dried protein for experiment described in […].
FIG. 6C. B24/32 peptide inhibits neurite outgrowth. Dissociated neurons from E13 chick DRG were plated onto 96 well dishes coated with 500 pmol of dried peptides as indicated and stained for neurofilament localization.
FIG. 6D. Neurite length per neuron was measured and plotted as percentage of PBS control for experiments as in (C).
It has been recognized that the Amino-Nogo-A protein inhibits non-neuronal cell spreading and axonal outgrowth when the protein is substrate bound (Chen, M. S., et al., Nature 403:434-439 (2000); Fournier, A. E., et al., Nature 409:341-346 (2001)). […] The later domain has been termed Δ20. To determine whether the NgR-interacting aa of Amino-Nogo-A described in Example 1 regulate cell spreading and axonal outgrowth, various fragments were expressed as GST fusion proteins and purified from E. coli. To generate GST fusion proteins, amino Nogo fragments were cloned in pGEX2T (Amersham Pharmacia). Native and soluble GST fusion proteins were expressed and purified as described (GrandPre, T., et al., Nature 403:439-444 (2000)). COS-7 binding assays were done as described (Fournier, A. E., et al., Nature 409:341-346 (2001)). Bound AP to COS-7 cells was measured using NIH image software. Fibroblast spreading and cDRG outgrowth assay were done as described (Fournier, A. E., et al., Nature 409:341-346 (2001)) with some modifications. Briefly, 50 μl of purified GST fusion protein or peptides diluted in PBS was pipetted into polylysine precoated 96 well plates (Becton Dickson Biocoat plates) and dried overnight at room temperature. For fibroblast spreading assay, subconfluent COS-7 cells were then plated for 1 hour in serum containing medium before fixation and staining with rho damine-phalloidin.
The same GST-Amino-Nogo proteins were tested for their ability to reduce neurite outgrowth from chick E13 DRG neurons. For cDRG outgrowth assay, dissociated E13 cDRG neurons were plated for 6 hours before fixation. […] Cell area, number of attached cells and neurite length were measured using the Imageexpress machine and software (Axon Instrument).
We reasoned that fusing the 24 aa segment of Amino-Nogo-A to NEP32 antagonist peptide might create a high affinity antagonist with a potency similar to the binding of AP-B4C-66 to NgR. […] Cell area, number of attached cells and neurite length were measured using the linageexpress machine and software (Axon Instrument).

Residue numbers refer to the chain shown, from its start. Names and notes keep the numbering of the source.

B1: AP-fused Amino-Nogo fragment B4C (a.a. 950-1018) (ligand)
chain: LLPPDVSALATQAEIESIVKPKVLVKEAEKKLPSDTEKEDRSPSAIFSAELSKTSVVDLLYWRDIKKTG
notes: also called AmNg B4C; AP-B4C; not shown: alkaline phosphatase (AP), vector pcAP6
In the case of B1, the binding result in test [1], in test [2], in test [3], in test [4], in test [5] and in test [6] was “no binding” each time.

B2: AP-Nogo-66 (ligand, UniProt Q9NQC3 1055-1120, looked up)
chain: RIYKGVIQAIQKSDEGHPFRAYLESEVAISEELVQKYSNSALGHVNCTIKELRRLFLVDDLVDSLK
notes: domain: Nogo-66; construct described elsewhere (Fournier 2001); also called AP-Ng66; Ng66; not shown: alkaline phosphatase (AP); construct described elsewhere
On to B2, for which the binding result in test [1], in test [2], in test [3], in test [4], in test [5] and in test [6] was “no binding” in each case.

B3: B fragment of Amino-Nogo: fusion protein of GST and B fragment of Amino-Nogo (protein, UniProt Q9NQC3 622-1018, looked up, fragment)
chain: SAVPSAGASVIQPSSSPLEASSVNYESIKHEPENPPPYEEAMSVSLKKVSGIKEEIKEPENINAALQETEAPYISIACDLIKETKLSAEPAPDFSDYSEMAKVEQPVPDHSELVEDSSPDSEPVDLFSDDSIPDVPQKQDETVMLVKESLTETSFESMIEYENKEKLSALPPEGGKPYLESFKLSLDNTKDTLLPDEVSTLSKKEKIPLQMEELSTAVYSNDDLFISKEAQIRETETFSDSSPIEIIDEFPTLISSKTDSFSKLAREYTDLEVSHKSEIANAPDGAGSLPCTELPHDLSLKNIQPKVEEKISFSDDFSKNGSATSKVLLLPPDVSALATQAEIESIVKPKVLVKEAEKKLPSDTEKEDRSPSAIFSAELSKTSVVDLLYWRDIKKTG
modifications: GST fusion
Regarding B3, the “COS-7 cell attachment and spreading” value in the test with COS-7 cells is “active”.

B4: B4: fusion protein of GST and B4 fragment (carboxyl terminal 150 aa) of Amino-Nogo (protein)
chain: SKTDSFSKLAREYTDLEVSHKSEIANAPDGAGSLPCTELPHDLSLKNIQPKVEEKISFSDDFSKNGSATSKVLLLPPDVSALATQAEIESIVKPKVLVKEAEKKLPSDTEKEDRSPSAIFSAELSKTSVVDLLYWRDIKKTG
modifications: left off: a dimerising Fc or GST
notes: fusion protein of GST and B4 fragment (carboxyl terminal 150 aa) of Amino-Nogo
Regarding B4, the “neurite outgrowth from chick E13 DRG neurons” value in the test on E13 chick DRG neurons is “not inhibitory for axonal growth”. Besides, the “COS-7 cell attachment and spreading” value in the test with COS-7 cells is listed as “do not alter COS-7 morphology”.

For the origin of these results see patent US20090111753A1, “Nogo-A Polypeptide Fragments, Variant Nogo Receptor-1 Polypeptides, and Uses Thereof” (Yale University, priority 2004, published 2009).
